The target of this assay is T1, His-p53 (UniProt P04637 1-393).
T1 construct: p53; also called Purified p53; source: purified
Description: pull-down; GST-TRIM26 fragments on beads, incubated with His-p53 or His-MDM2 at RT for 40 min; bound protein detected by Western blot with His antibody. The note with it: both partners purified.

Consider one molecule from publication PMC12162846, “Tripartite motif-containing protein 26 promotes colorectal cancer growth by inactivating p53” (Cell Death and Differentiation, 2025).

T1 sequence (P04637 whole entry): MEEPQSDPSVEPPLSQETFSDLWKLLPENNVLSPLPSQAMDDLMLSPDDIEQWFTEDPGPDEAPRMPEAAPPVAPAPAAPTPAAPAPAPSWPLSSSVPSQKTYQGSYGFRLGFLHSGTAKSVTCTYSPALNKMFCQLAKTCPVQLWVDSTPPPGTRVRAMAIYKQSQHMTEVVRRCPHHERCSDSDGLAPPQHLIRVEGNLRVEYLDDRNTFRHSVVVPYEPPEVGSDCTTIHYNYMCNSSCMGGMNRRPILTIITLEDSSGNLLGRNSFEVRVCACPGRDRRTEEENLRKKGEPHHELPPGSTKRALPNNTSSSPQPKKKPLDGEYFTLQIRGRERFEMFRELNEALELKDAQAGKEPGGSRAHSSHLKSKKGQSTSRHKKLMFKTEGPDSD

B1: GST-TRIM26 C-terminal PRYSPRY domain (aa301-539) (domain or fragment, UniProt Q12899 301-539, looked up)
chain: QGKLLRDLEYKTVSVTLDPQSASGYLQLSEDWKCVTYTSLYKSAYLHPQQFDCEPGVLGSKGFTWGKVYWEVEVEREGWSEDEEEGDEEEEGEEEEEEEEAGYGDGYDDWETDEDEESLGDEEEEEEEEEEEVLESCMVGVARDSVKRKGDLSLRPEDGVWALRLSSSGIWANTSPEAELFPALRPRRVGIALDYEGGTVTFTNAESQELIYTFTATFTRRLVPFLWLKWPGTRLLLRP
notes: also called the C-terminal domain of TRIM26; source: purified GST-fusion protein on beads
For the molecule B1, the binding result was “binds”.
